Assay results taken from IntAct's records for PubMed 24819706.

B1: Transcriptional activator GLI3 (Homo sapiens), P10071 (parent)
chain: MEAQSHSSTTTEKKKVENSIVKCSTRTDVSEKAVASSTTSNEDESPGQTYHRERRNAITMQPQNVQGLSKVSEEPSTSSDERASLIKKEIHGSLPHVAEPSVPYRGTVFAMDPRNGYMEPHYHPPHLFPAFHPPVPIDARHHEGRYHYDPSPIPPLHMTSALSSSPTYPDLPFIRISPHRNPTAASESPFSPPHPYINPYMDYIRSLHSSPSLSMISATRGLSPTDAPHAGVSPAEYYHQMALLTGQRSPYADIIPSAATAGTGAIHMEYLHAMDSTRFSSPRLSARPSRKRTLSISPLSDHSFDLQTMIRTSPNSLVTILNNSRSSSSASGSYGHLSASAISPALSFTYSSAPVSLHMHQQILSRQQSLGSAFGHSPPLIHPAPTFPTQRPIPGIPTVLNPVQVSSGPSESSQNKPTSESAVSSTGDPMHNKRSKIKPDEDLPSPGARGQQEQPEGTTLVKEEGDKDESKQEPEVIYETNCHWEGCAREFDTQEQLVHHINNDHIHGEKKEFVCRWLDCSREQKPFKAQYMLVVHMRRHTGEKPHKCTFEGCTKAYSRLENLKTHLRSHTGEKPYVCEHEGCNKAFSNASDRAKHQNRTHSNEKPYVCKIPGCTKRYTDPSSLRKHVKTVHGPEAHVTKKQRGDIHPRPPPPRDSGSHSQSRSPGRPTQGALGEQQDLSNTTSKREECLQVKTVKAEKPMTSQPSPGGQSSCSSQQSPISNYSNSGLELPLTDGGSIGDLSAIDETPIMDSTISTATTALALQARRNPAGTKWMEHVKLERLKQVNGMFPRLNPILPPKAPAVSPLIGNGTQSNNTCSLGGPMTLLPGRSDLSGVDVTMLNMLNRRDSSASTISSAYLSSRRSSGISPCFSSRRSSEASQAEGRPQNVSVADSYDPISTDASRRSSEASQSDGLPSLLSLTPAQQYRLKAKYAAATGGPPPTPLPNMERMSLKTRLALLGDALEPGVALPPVHAPRRCSDGGAHGYGRRHLQPHDAPGHGVRRASDPVRTGSEGLALPRVPRFSSLSSCNPPAMATSAEKRSLVLQNYTRPEGGQSRNFHSSPCPPSITENVTLESLTMDADANLNDEDFLPDDVVQYLNSQNQAGYEQHFPSALPDDSKVPHGPGDFDAPGLPDSHAGQQFHALEQPCPEGSKTDLPIQWNEVSSGSADLSSSKLKCGPRPAVPQTRAFGFCNGMVVHPQNPLRSGPAGGYQTLGENSNPYGGPEHLMLHNSPGSGTSGNAFHEQPCKAPQYGNCLNRQPVAPGALDGACGAGIQASKLKSTPMQGSGGQLNFGLPVAPNESAGSMVNGMQNQDPVGQGYLAHQLLGDSMQHPGAGRPGQQMLGQISATSHINIYQGPESCLPGAHGMGSQPSSLAVVRGYQPCASFGGSRRQAMPRDSLALQSGQLSDTSQTCRVNGIKMEMKGQPHPLCSNLQNYSGQFYDQTVGFSQQDTKAGSFSISDASCLLQGTSAKNSELLSPGANQVTSTVDSLDSHDLEGVQIDFDAIIDDGDHSSLMSGALSPSIIQNLSHSSSRLTTPRASLPFPALSMSTTNMAIGDMSSLLTSLAEESKFLAVMQ
partner: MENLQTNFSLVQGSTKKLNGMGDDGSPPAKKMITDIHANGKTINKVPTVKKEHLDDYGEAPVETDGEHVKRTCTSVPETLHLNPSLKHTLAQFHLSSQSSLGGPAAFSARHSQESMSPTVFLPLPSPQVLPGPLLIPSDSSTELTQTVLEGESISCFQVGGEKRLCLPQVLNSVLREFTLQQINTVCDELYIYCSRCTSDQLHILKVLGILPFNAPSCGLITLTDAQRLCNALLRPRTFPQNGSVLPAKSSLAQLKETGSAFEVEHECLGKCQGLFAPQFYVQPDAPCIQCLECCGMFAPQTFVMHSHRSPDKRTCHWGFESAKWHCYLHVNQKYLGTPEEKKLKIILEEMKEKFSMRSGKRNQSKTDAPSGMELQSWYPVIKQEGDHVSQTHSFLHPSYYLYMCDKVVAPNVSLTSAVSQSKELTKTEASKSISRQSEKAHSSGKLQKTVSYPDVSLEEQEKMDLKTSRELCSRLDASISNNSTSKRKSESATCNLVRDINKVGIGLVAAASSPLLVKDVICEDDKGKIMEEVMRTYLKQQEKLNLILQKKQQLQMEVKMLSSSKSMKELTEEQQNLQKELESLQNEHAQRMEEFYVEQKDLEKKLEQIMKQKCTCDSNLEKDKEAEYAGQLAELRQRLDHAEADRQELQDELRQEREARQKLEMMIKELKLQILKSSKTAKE

Variants of: B1
Conditions: with skil_human SKIL

| Variant | effect of a mutation on the interaction |
| --- | --- |
| M111T | decreasing interaction strength |
